These results are taken from patent US20220177587A1, “METHODS AND USES OF VARIANT CD80 FUSION PROTEINS AND RELATED CONSTRUCTS” (Alpine Immune Sciences, Inc., priority 2018, published 2022).

Changes are numbered by the printed parent chain. Names and notes keep the numbering of the source.

B1: H18Y/A26E/V68M/A71G (protein)
chain: VIHVTKEVKEVATLSCGYNVSVEELEQTRIYWQKEKKMVLTMMSGDMNIWPEYKNRTIFDITNNLSIMILGLRPSDEGTYECVVLKYEKDAFKREHLAEVTLSVKAD
B2: H18Y/A26E/M47L/A71G (protein)
chain: B1 chain with M47L, M68V
B3: H18C/A26P/E35D/M47L/V68M/A71G (protein, UniProt P33681 35-288, looked up, variant H18C A26P E35D M47L V68M A71G)
T-lymphocyte activation …: VIHVTKEVKEVATLSCGCNVSVEELPQTRIYWQKDKKMVLTMMSGDLNIWPEYKNRTIFDITNNLSIMILGLRPSDEGTYECVVLKYEKDAFKREHLAEVTLSVKADFPTPSISDFEIPTSNIRRIICSTSGGFPEPHLSWLENGEELNAINTTVSQDPETELYAVSSKLDFNMTTNHSFMCLIKYGHLRVNQTFNWNTTKQEHFPDNLLPSWAITLISVNGIFVICCLTYCFAPRCRERRRNERLRRESVRPV
B4: H18T/A26N/E35D/M47L/V68M/A71G (protein, UniProt P33681 35-288, looked up, variant H18T A26N E35D M47L V68M A71G)
T-lymphocyte activation …: B3 T-lymphocyte activation … with C18T, P26N
modifications: Fc fusion
B5: H18V/A26Q/E35D/M47V/V68L/A71G/D90G (protein, UniProt P33681 35-288, looked up, variant H18V A26Q E35D M47V V68L A71G D90G)
T-lymphocyte activation …: B3 T-lymphocyte activation … with C18V, P26Q, L47V, M68L, D90G
B6: H18F/A26N/E35D/M47V/V68M/A71G/D90K (protein, UniProt P33681 35-288, looked up, variant H18F A26N E35D M47V V68M A71G D90K)
T-lymphocyte activation …: B3 T-lymphocyte activation … with C18F, P26N, L47V, D90K
B7: H18V/A26P/E35D/M47L/V68M/A71G (protein, UniProt P33681 35-288, looked up, variant H18V A26P E35D M47L V68M A71G)
T-lymphocyte activation …: B3 T-lymphocyte activation … with C18V
B8: H18V/A26D/E35D/M47V/V68M/A71G/D90G (protein, UniProt P33681 35-288, looked up, variant H18V A26D E35D M47V V68M A71G D90G)
T-lymphocyte activation …: B3 T-lymphocyte activation … with C18V, P26D, L47V, D90G
modifications: Fc fusion
B9: H18L/A26N/D46E/V68M/A71G/D90G (protein, UniProt P33681 35-288, looked up, variant H18L A26N D46E V68M A71G D90G)
T-lymphocyte activation …: B3 T-lymphocyte activation … with C18L, P26N, D35E, D46E, L47M, D90G
B10: E35D/M47V/N48K/V68M/K89N delta (protein)
chain: VIHVTKEVKEVATLSCGHNVSVEELAQTRIYWQKDKKMVLTMMSGDVKIWPEYKNRTIFDITNNLSIMILALRPSDEGTYECVVLKYENDAFKREHLAEVTLSVKTHTCPPCPAPEAEGAPSVFLFPPKPKDTLMISRTPEVTCVVVDVSHEDPEVKFNWYVDGVEVHNAKTKPREEQYNSTYRVVSVLTVLHQDWLNGKEYKCKVSNKALPAPIEKTISKAKGQPREPQVYTLPPSREEMTKNQVSLTCLVKGFYPSDIAVEWESNGQPENNYKTTPPVLDSDGSFFLYSKLTVDKSRWQQGNVFSCSVMHEALHNHYTQKSLSLSPG

Chain of huCTLA4 (P16410 36-223): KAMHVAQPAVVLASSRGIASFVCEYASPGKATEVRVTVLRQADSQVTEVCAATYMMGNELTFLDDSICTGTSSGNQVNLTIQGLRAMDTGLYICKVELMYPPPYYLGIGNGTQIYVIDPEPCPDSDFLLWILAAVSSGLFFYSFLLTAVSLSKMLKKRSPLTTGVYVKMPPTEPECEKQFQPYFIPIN

The first experiment concerns the target T1, CD28 (Homo sapiens, UniProt P10747). Description: Flow binding to Jurkat/IL2 reporter cells (CD28). The arrangement: host or cells: Jurkat cells expressing an IL-2-luciferase reporter. Conditions: Table E20; Jurkats (CD28); 33.3 nM. Put shortly:
(§1)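 Fusion proteins bound to CHO cells stably expressing CTLA4 or PD-L1, or to Jurkat/IL2 reporter cells with endogenous CD28, for 45 min on ice after blocking in PBS/1% BSA. Detection with PE anti-human Fc by flow cytometry; PE MFI per cell type and binding EC50 determined.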
Regarding B1, the “CD28 MFI at 33.3 nM” value is recorded as 99.4.
With B2, the “CD28 MFI at 33.3 nM” value is on record as 611.

Still in this experiment, the particulars now being: Table E20; MFI at 33.3 nM relative to CD80 WT IgV-Fc.
Consider B1, for which the “CD28 Fold change to WT CD80” value is on record as 2.3 fold.
Still for that read-out and setting: as for B2, the figure is 13.9 fold.

Staying with this experiment, now noted: Table E23; CD80 IgV-Fc (inert) at 33.3 nM; Jurkat (CD28).
Consider B3, for which the “CD28 MFI at 33.3 nM” value is given as 1906.
Take B4: the “CD28 MFI at 33.3 nM” value is recorded as 1366.
As to B5, the “CD28 MFI at 33.3 nM” value stood at 3126.
The same measure, in the same setting: the result for B6 reads 3170.
Regarding B7, the “CD28 MFI at 33.3 nM” value was determined as 2452.
With B8, the “CD28 MFI at 33.3 nM” value stood at 6253.
As for B9, the “CD28 MFI at 33.3 nM” value worked out at 7253.

Still in this experiment, the particulars now being: Table E23; MFI at 33.3 nM relative to CD80 WT IgV-Fc.
As to B3, the “CD28 Fold change to WT CD80” value came to 18.7.
The same measure, in the same setting: the result for B4 reads 13.4; that for B5, 30.6.
Consider B6, for which the “CD28 Fold change to WT CD80” value turned out to be 31.1.
On the same count and under the same terms, the result for B7 reads 24.0; that for B8, 61.3; that for B9, 71.1.

The experiment is the same for the next values; noted with them: Table E25; linker variants; 33.3 nM; Jurkats (CD28).
Turning to B10, the “CD28 MFI at 33.3 nM” value came to 4678.

Another experiment has as its target T1, CD28. Description: Jurkat/IL2 + CHO/OKT3 +/- PD-L1 reporter assay: PD-L1-dependent CD28 costimulation. In kind it is cell-based. The arrangement: host or cells: Jurkat cells expressing an IL-2-luciferase reporter. As to conditions: Table E22; Jurkat/IL2 + CHO/OKT3/PD-L1; 5.0 nM. Put shortly:
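Jurkat reporter cells (100,000/well) preincubated 15 min at room temperature with test protein, then cocultured 5 h at 37 °C with CHO aAPCs bearing anti-CD3 scFv (OKT3) with or without PD-L1. Luciferase luminescence (RLU) read after lysis-substrate addition.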
On the technique in general: A reporter such as luciferase makes a cellular process visible.
Take B1: the “Fold Increase over WT CD80-IgV-Fe” value is 1.20 fold.
Turning to B2, the “Fold Increase over WT CD80-IgV-Fe” value amounted to 2.84 fold.

Staying with this experiment, now noted: Table E22; Jurkat/IL2 + CHO/OKT3/PD-L1; CD80 Conc 5.0 nM.
For B1, the “Relative Luciferase Units (RLU), CD80 Conc 5.0 nM” value (“Relative Luciferase Units (RLU)” below) is on record as 469 RLU.
As for B2, the “Relative Luciferase Units (RLU)” value is 1107 RLU.

Staying with this experiment, now noted: Table E24; Jurkat/IL2 + CHO/OKT3/PD-L1; 5.0 nM.
In the case of B3, the “Fold Increase over WT CD80-IgV-Fe” value came out at 5.5 and the “Relative Luciferase Units (RLU)” value is 936 RLU.
The like results for B4 were, in that order, 6.2 and 1053 RLU.
The like results for B5 were, in that order, 4.6 and 795 RLU.
On to B6, for which the “Fold Increase over WT CD80-IgV-Fe” value is on record as 5.4 and the “Relative Luciferase Units (RLU)” value was 919 RLU.
As to B7, the “Fold Increase over WT CD80-IgV-Fe” value was found to be 4.7 and the “Relative Luciferase Units (RLU)” value is on record as 808 RLU.
Turning to B8, the “Fold Increase over WT CD80-IgV-Fe” value came to 4.5 and the “Relative Luciferase Units (RLU)” value is listed as 771 RLU.
On to B9, for which the “Fold Increase over WT CD80-IgV-Fe” value was 4.8 and the “Relative Luciferase Units (RLU)” value stood at 815 RLU.

The experiment is the same for the next values; noted with them: Table E26; linker variants; 5.0 nM.
As for B10, the “Fold Increase over WT CD80-IgV-Fe” value was 2.63.

The experiment is the same for the next values; noted with them: Table E26; linker variants; Jurkat/IL2 + CHO/OKT3/PD-L1; 5.0 nM.
As for B10, the “Relative Luciferase Units (RLU)” value was 1026 RLU.

A further experiment addresses huCTLA4 (Homo sapiens, UniProt P16410). Description: Flow binding to CHO cells stably expressing CTLA4. The arrangement: huCTLA4 and huPD-L1, full-length mammalian surface expression constructs were generated; expressed in transfected cells; host or cells: CHO cells, lentiviral transduction, sorted to >98% purity. Conditions: Table E20; CHO cells stably expressing CTLA4; 33.3 nM. Put shortly: as §1
In the case of B1, the “CTLA4 MFI at 33.3 nM” value came out at 11323.
On the same count and under the same terms, as for B2, the figure is 22108.

The experiment is the same for the next values; noted with them: Table E20; MFI at 33.3 nM relative to CD80 WT IgV-Fc.
For B1, the “CTLA4 Fold change to WT CD80” value is 8.3 fold.
As for B2, the “CTLA4 Fold change to WT CD80” value came to 16.3 fold.

The same experiment, now with this note: Table E23; CD80 IgV-Fc (inert) at 33.3 nM; CHO cells stably expressing CTLA4.
In the case of B3, the “CTLA4 MFI at 33.3 nM” value was found to be 23371.
Same read-out and setting: as for B4, the figure is 20911.
Same read-out and setting: the result for B5 reads 17654; that for B6, 15206.
In the case of B7, the “CTLA4 MFI at 33.3 nM” value was 16192.
B8: the “CTLA4 MFI at 33.3 nM” value is on record as 22132.
The same measure, in the same setting: the result for B9 reads 17045.

The experiment is the same for the next values; noted with them: Table E23; MFI at 33.3 nM relative to CD80 WT IgV-Fc.
On to B3, for which the “CTLA4 Fold change to WT CD80” value was 16.9.
For B4, the “CTLA4 Fold change to WT CD80” value worked out at 15.1.
On to B5, for which the “CTLA4 Fold change to WT CD80” value is recorded as 12.8.
Same read-out and setting: the result for B6 reads 11.0.
Still for that read-out and setting: the result for B7 reads 11.7; that for B8, 16.0.
Still for that read-out and setting: as for B9, the figure is 12.3.

The same experiment, now with this note: Table E25; linker variants; 33.3 nM; CHO cells stably expressing CTLA4.
As to B10, the “CTLA4 MFI at 33.3 nM” value was found to be 3091.

The target of the next experiment is huPD-L1 (Homo sapiens, UniProt Q9NZQ7). The experiment in a line: Flow binding to CHO cells stably expressing PD-L1. The arrangement: huCTLA4 and huPD-L1, full-length mammalian surface expression constructs were generated; expressed in transfected cells; host or cells: CHO cells, lentiviral transduction, sorted to >98% purity. Conditions: Table E20; CHO cells stably expressing PD-L1; 33.3 nM. In short, it runs like this: as §1
Chain of huPD-L1 (Q9NZQ7 19-290): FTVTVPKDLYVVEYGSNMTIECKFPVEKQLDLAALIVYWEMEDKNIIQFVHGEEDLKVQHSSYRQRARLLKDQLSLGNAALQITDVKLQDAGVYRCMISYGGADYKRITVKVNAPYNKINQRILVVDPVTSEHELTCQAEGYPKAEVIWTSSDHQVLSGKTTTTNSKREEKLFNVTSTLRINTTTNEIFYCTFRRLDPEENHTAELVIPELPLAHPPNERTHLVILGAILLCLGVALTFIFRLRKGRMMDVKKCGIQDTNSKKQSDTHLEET
Consider B1, for which the “PD-L1 MFI at 33.3 nM” value was 6866.
For the molecule B2, the “PD-L1 MFI at 33.3 nM” value stood at 15563.

Still in this experiment, the particulars now being: Table E20; MFI at 33.3 nM relative to CD80 WT IgV-Fc.
In the case of B1, the “PD-L1 Fold change to WT CD80” value amounted to 157.5 fold.
B2: the “PD-L1 Fold change to WT CD80” value is recorded as 356.9 fold.

The experiment is the same for the next values; noted with them: Table E20; ratio of MFI at 33.3 nM.
As to B1, the “Ratio of PDL1:CD28” value is 69.1.
Take B2: the “Ratio of PDL1:CD28” value was found to be 25.5.

The experiment is the same for the next values; noted with them: Table E23; CD80 IgV-Fc (inert) at 33.3 nM; CHO cells stably expressing PD-L1.
As for B3, the “PD-L1 MFI at 33.3 nM” value amounted to 67010.
Regarding B4, the “PD-L1 MFI at 33.3 nM” value stood at 68498.
As for B5, the “PD-L1 MFI at 33.3 nM” value was determined as 33597.
With B6, the “PD-L1 MFI at 33.3 nM” value was 22395.
For the molecule B7, the “PD-L1 MFI at 33.3 nM” value turned out to be 52405.
On to B8, for which the “PD-L1 MFI at 33.3 nM” value was determined as 67503.
Turning to B9, the “PD-L1 MFI at 33.3 nM” value is on record as 67999.

The experiment is the same for the next values; noted with them: Table E23; MFI at 33.3 nM relative to CD80 WT IgV-Fc.
With B3, the “PD-L1 Fold change to WT CD80” value amounted to 406.1.
Still for that read-out and setting: as for B4, the figure is 415.1; as for B5, 203.6; as for B6, 135.7.
Consider B7, for which the “PD-L1 Fold change to WT CD80” value came to 317.6.
Still for that read-out and setting: as for B8, the figure is 409.1; as for B9, 412.1.

Staying with this experiment, now noted: Table E23; ratio of MFI at 33.3 nM.
Turning to B3, the “Ratio of PDL1:CD28” value is 35.2.
Still for that read-out and setting: the result for B4 reads 50.1.
As to B5, the “Ratio of PDL1:CD28” value was determined as 10.7.
The same measure, in the same setting: as for B6, the figure is 7.1; as for B7, 21.4; as for B8, 10.8.
With B9, the “Ratio of PDL1:CD28” value is recorded as 9.4.

The same experiment, now with this note: Table E25; linker variants; 33.3 nM; CHO cells stably expressing PD-L1.
Consider B10, for which the “PD-L1 MFI at 33.3 nM” value is given as 20442.

The same experiment, now with this note: Table E25; linker variants; ratio of MFI at 33.3 nM.
As for B10, the “Ratio of PDL1:CD28” value is reported as 4.
